Residue numbers refer to the chain shown, from its start. Names may count otherwise.
T1: human FcγRIIa(H) (human, UniProt P12318 36-217)
T1 construct: also called FcgRIIaH; FcγRIIa type H
T1 sequence: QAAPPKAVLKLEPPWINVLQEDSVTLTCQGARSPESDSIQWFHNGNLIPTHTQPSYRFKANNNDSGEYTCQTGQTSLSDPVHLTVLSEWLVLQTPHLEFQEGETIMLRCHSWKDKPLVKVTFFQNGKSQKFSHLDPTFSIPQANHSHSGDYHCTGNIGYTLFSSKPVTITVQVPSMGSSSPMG

T2: human FcγRIIa(R) (human, UniProt P12318 36-217)
T2 construct: also called FcgRIIaR; FcγRIIa type R
T2 chain: T1 sequence with H133R

T3: human FcγRIIb (human, UniProt P31994 43-217, limits assumed)
T3 construct: also called FcgRIIb
T3 sequence: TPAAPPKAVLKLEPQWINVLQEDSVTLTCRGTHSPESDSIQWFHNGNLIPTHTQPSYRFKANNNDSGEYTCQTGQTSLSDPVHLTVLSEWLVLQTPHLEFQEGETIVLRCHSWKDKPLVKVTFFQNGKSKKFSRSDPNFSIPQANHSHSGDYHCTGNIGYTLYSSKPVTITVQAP

B1: GpH7-B3 variant L234F/GpL16-k0 (antibody, human IgG1)
heavy: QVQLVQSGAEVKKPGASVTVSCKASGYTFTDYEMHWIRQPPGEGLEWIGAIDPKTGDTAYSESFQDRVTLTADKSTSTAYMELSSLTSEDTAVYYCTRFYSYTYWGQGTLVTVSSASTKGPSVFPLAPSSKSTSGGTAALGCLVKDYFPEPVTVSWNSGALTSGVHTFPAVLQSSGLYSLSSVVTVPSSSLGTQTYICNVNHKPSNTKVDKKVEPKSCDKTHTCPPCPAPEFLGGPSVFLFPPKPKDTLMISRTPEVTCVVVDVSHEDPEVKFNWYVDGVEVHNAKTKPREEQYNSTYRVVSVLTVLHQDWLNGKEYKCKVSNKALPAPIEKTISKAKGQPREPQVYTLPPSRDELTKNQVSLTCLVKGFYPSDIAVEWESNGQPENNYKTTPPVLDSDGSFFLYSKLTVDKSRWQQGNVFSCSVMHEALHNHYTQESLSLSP
light: DIVMTQSPLSLPVTPGEPASISCQASESLVHSNRNTYLHWYLQKPGQSPQLLIYKVSNRFSGVPDRFSGSGSGTDFTLKISRVEAEDVGVYYCSQNTHVPPTFGQGTKVEIE
notes: copies: 2 + 2
B2: GpH7-B3 variant G237S/GpL16-k0 (antibody, human IgG1)
heavy: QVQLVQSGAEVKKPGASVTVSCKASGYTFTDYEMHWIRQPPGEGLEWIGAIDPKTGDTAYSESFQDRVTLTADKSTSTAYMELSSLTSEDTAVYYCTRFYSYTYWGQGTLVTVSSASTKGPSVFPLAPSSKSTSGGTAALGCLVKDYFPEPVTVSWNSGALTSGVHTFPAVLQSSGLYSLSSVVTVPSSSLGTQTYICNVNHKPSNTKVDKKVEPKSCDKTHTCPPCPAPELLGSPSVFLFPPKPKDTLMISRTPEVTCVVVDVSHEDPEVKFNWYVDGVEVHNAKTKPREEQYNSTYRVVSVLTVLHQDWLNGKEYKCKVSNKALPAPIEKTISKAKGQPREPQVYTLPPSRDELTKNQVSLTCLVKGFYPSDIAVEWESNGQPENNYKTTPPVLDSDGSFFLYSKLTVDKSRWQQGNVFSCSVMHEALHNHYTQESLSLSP
light: B1 light
notes: copies: 2 + 2
B3: GpH7-B3 variant L234E/GpL16-k0 (antibody, human IgG1)
heavy: not shown
light: B1 light
notes: copies: 2 + 2
B4: GpH7-B3 variant L234R/GpL16-k0 (antibody, human IgG1)
heavy: not shown
light: B1 light
notes: copies: 2 + 2
B5: GpH7-B3 variant L235A/GpL16-k0 (antibody, human IgG1)
heavy: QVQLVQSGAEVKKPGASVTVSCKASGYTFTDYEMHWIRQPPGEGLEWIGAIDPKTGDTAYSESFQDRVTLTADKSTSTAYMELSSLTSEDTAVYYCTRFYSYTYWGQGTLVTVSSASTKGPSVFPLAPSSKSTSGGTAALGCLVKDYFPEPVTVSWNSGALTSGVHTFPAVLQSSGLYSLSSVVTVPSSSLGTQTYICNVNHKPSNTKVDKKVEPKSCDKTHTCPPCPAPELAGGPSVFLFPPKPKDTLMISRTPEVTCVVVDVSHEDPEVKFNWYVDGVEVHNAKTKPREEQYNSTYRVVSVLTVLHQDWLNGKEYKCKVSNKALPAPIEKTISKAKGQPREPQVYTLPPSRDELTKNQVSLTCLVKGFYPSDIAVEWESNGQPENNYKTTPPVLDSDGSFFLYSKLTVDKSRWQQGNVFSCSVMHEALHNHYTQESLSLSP
light: B1 light
notes: copies: 2 + 2
B6: GpH7-B3 variant L235K/GpL16-k0 (antibody, human IgG1)
heavy: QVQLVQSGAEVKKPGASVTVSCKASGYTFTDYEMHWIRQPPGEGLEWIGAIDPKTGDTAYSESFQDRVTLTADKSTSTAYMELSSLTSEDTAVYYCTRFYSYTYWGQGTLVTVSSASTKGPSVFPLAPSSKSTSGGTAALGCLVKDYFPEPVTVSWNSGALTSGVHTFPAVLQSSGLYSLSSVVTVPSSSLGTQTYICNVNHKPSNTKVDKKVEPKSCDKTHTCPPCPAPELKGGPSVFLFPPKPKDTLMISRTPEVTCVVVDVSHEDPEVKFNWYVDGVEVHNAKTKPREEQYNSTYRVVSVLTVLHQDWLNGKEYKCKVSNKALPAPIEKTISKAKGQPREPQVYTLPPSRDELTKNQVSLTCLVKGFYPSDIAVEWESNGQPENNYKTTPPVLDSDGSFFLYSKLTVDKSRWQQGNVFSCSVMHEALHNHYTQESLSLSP
light: B1 light
notes: copies: 2 + 2
B7: GpH7-B3 variant L234M/GpL16-k0 (antibody, human IgG1)
heavy: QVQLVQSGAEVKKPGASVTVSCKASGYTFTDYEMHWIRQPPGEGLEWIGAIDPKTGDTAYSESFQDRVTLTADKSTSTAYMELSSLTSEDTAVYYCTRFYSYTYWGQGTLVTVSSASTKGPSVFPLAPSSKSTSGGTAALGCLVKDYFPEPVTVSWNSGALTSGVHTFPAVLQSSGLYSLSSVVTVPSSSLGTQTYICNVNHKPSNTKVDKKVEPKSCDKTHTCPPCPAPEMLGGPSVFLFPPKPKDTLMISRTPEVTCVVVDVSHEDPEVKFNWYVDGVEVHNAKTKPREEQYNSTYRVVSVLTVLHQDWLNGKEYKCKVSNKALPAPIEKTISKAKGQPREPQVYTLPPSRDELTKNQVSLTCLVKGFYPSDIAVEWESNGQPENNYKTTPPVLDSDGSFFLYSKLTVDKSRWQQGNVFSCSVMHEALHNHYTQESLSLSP
light: B1 light
notes: copies: 2 + 2
B8: GpH7-B3 variant L234W/GpL16-k0 (antibody, human IgG1)
heavy: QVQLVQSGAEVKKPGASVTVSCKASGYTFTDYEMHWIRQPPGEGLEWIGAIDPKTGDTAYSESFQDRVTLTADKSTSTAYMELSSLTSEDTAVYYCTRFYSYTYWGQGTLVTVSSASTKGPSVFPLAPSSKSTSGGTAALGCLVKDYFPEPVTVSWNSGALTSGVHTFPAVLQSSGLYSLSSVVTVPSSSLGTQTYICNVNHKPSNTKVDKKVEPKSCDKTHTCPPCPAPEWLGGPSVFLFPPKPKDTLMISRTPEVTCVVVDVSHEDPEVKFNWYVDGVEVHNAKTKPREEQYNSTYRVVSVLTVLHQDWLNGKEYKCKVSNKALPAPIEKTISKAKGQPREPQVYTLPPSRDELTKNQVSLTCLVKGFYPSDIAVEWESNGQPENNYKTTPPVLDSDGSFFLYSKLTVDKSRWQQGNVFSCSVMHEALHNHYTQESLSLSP
light: B1 light
notes: copies: 2 + 2
B9: GpH7-B3 variant L235N/GpL16-k0 (antibody, human IgG1)
heavy: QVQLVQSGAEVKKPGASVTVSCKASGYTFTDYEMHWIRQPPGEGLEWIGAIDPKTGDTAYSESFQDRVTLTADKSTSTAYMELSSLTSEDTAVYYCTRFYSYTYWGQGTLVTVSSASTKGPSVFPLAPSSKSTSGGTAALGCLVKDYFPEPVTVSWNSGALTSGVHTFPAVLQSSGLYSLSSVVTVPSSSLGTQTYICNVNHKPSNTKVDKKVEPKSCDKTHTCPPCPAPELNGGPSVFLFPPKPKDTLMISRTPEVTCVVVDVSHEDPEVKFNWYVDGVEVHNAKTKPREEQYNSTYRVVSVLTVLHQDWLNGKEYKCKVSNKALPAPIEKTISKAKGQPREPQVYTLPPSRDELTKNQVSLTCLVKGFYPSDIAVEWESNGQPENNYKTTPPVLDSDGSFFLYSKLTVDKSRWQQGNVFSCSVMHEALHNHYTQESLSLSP
light: B1 light
notes: copies: 2 + 2
B10: GpH7-B3 variant L234Q/GpL16-k0 (antibody, human IgG1)
heavy: not shown
light: B1 light
notes: copies: 2 + 2
B11: GpH7-B3 variant L235D/GpL16-k0 (antibody, human IgG1)
heavy: not shown
light: B1 light
notes: copies: 2 + 2
B12: GpH7-B3 variant L234S/GpL16-k0 (antibody, human IgG1)
heavy: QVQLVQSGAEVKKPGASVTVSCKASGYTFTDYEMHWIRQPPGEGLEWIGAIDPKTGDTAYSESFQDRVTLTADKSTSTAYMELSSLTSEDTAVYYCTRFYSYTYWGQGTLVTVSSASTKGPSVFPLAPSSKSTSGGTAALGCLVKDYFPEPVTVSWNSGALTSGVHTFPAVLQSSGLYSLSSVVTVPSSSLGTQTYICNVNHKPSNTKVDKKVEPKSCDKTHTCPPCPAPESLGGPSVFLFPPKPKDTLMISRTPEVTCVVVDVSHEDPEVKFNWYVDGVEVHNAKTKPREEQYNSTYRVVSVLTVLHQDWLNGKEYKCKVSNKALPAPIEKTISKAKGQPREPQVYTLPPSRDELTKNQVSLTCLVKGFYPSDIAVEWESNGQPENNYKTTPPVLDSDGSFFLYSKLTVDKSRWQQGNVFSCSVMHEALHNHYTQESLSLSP
light: B1 light
notes: copies: 2 + 2
B13: GpH7-B3 variant G237V/GpL16-k0 (antibody, human IgG1)
heavy: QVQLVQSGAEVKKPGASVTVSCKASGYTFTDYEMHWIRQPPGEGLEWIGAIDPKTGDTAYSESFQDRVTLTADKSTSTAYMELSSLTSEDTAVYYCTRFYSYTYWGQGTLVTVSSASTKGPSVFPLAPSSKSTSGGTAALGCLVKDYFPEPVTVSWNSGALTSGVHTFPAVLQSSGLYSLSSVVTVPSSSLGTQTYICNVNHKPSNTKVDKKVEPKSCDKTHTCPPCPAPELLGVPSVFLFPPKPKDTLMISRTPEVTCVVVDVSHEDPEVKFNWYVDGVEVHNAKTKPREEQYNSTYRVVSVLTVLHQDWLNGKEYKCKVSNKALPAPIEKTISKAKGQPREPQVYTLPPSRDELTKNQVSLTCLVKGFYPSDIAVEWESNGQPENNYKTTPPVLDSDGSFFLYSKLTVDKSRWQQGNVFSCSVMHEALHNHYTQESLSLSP
light: B1 light
notes: copies: 2 + 2
B14: GpH7-B3 variant L235P/GpL16-k0 (antibody, human IgG1)
heavy: not shown
light: B1 light
notes: copies: 2 + 2
B15: GpH7-B3 variant L235E/GpL16-k0 (antibody, human IgG1)
heavy: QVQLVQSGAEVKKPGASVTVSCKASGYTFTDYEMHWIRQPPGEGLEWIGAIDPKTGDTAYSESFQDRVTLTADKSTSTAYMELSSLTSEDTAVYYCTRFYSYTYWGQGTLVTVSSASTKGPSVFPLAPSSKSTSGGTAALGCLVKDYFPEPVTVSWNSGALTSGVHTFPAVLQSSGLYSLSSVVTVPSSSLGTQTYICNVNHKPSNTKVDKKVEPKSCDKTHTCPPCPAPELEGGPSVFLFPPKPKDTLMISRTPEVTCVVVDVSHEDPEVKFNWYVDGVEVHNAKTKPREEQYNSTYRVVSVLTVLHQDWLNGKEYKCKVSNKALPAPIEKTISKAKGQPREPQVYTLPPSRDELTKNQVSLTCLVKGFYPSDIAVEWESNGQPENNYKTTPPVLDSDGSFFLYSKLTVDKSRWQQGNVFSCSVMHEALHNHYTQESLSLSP
light: B1 light
notes: copies: 2 + 2

These binders were tested against T4, human FcγRIa (human, UniProt P12314 16-292, limits assumed) (assay: SPR (Biacore);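 note: antibody variants captured on sensor chip, Fcγ receptor flowed over at 25 °C, bound receptor normalized to amount of captured antibody, expressed relative to reference antibody set as 100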).
T4 construct: also called FcgRIa; FcγRI (CD64)
T4 sequence (P12314 16-292 limits assumed): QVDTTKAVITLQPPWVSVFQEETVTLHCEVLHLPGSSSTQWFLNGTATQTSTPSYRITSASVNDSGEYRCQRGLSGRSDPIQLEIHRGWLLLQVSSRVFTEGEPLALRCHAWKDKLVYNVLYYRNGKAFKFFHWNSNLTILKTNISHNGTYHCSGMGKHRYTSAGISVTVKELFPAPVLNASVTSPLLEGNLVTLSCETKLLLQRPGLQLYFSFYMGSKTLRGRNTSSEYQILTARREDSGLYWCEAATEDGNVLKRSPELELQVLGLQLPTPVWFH
For B1, the relative binding activity was 96 % of GpH7-B3/GpL16-k0.
B2 was tested, and the relative binding activity was 50 % of GpH7-B3/GpL16-k0.
For B3, the relative binding activity was 82 % of GpH7-B3/GpL16-k0.
In the case of B4, the relative binding activity is reported as 50 % of GpH7-B3/GpL16-k0.
B5 was tested, and the relative binding activity was 66 % of GpH7-B3/GpL16-k0.
With B6 the relative binding activity was -1 % of GpH7-B3/GpL16-k0.
In the case of B7, the relative binding activity is reported as 100 % of GpH7-B3/GpL16-k0.
B8 was tested, and the relative binding activity was 94 % of GpH7-B3/GpL16-k0.
B9 was tested, and the relative binding activity was 3 % of GpH7-B3/GpL16-k0.
For B10, the relative binding activity was 80 % of GpH7-B3/GpL16-k0.
In the case of B11, the relative binding activity is reported as 1 % of GpH7-B3/GpL16-k0.
In the case of B12, the relative binding activity is reported as 63 % of GpH7-B3/GpL16-k0.
With B13 the relative binding activity was 8 % of GpH7-B3/GpL16-k0.
With B14 the relative binding activity was 3 % of GpH7-B3/GpL16-k0.
With B15 the relative binding activity was 15 % of GpH7-B3/GpL16-k0.

What follows are binders tested against T1, human FcγRIIa(H) (assay: SPR (Biacore);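 note: antibody variants captured on sensor chip, Fcγ receptor flowed over at 25 °C, bound receptor normalized to amount of captured antibody, expressed relative to reference antibody set as 100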).
For B1, the relative binding activity was 62 % of GpH7-B3/GpL16-k0.
B2 was tested, and the relative binding activity was 3 % of GpH7-B3/GpL16-k0.
With B3 the relative binding activity was 21 % of GpH7-B3/GpL16-k0.
In the case of B4, the relative binding activity is reported as 2 % of GpH7-B3/GpL16-k0.
In the case of B5, the relative binding activity is reported as 48 % of GpH7-B3/GpL16-k0.
B6 was tested, and the relative binding activity was 0 % of GpH7-B3/GpL16-k0.
With B7 the relative binding activity was 57 % of GpH7-B3/GpL16-k0.
In the case of B8, the relative binding activity is reported as 63 % of GpH7-B3/GpL16-k0.
For B9, the relative binding activity was 37 % of GpH7-B3/GpL16-k0.
In the case of B10, the relative binding activity is reported as 16 % of GpH7-B3/GpL16-k0.
With B11 the relative binding activity was 60 % of GpH7-B3/GpL16-k0.
B12 was tested, and the relative binding activity was 21 % of GpH7-B3/GpL16-k0.
For B13, the relative binding activity was 10 % of GpH7-B3/GpL16-k0.
With B14 the relative binding activity was 33 % of GpH7-B3/GpL16-k0.
B15 was tested, and the relative binding activity was 52 % of GpH7-B3/GpL16-k0.

Molecular target: T2, human FcγRIIa(R)
Assay: SPR (Biacore);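 note: antibody variants captured on sensor chip, Fcγ receptor flowed over at 25 °C, bound receptor normalized to amount of captured antibody, expressed relative to reference antibody set as 100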
B1 was tested, and the relative binding activity was 52 % of GpH7-B3/GpL16-k0.
For B2, the relative binding activity was 45 % of GpH7-B3/GpL16-k0.
With B3 the relative binding activity was 48 % of GpH7-B3/GpL16-k0.
In the case of B4, the relative binding activity is reported as 0 % of GpH7-B3/GpL16-k0.
For B5, the relative binding activity was 50 % of GpH7-B3/GpL16-k0.
For B6, the relative binding activity was -5 % of GpH7-B3/GpL16-k0.
For B7, the relative binding activity was 65 % of GpH7-B3/GpL16-k0.
For B8, the relative binding activity was 64 % of GpH7-B3/GpL16-k0.
In the case of B9, the relative binding activity is reported as 35 % of GpH7-B3/GpL16-k0.
B10 was tested, and the relative binding activity was 18 % of GpH7-B3/GpL16-k0.
B11 was tested, and the relative binding activity was 87 % of GpH7-B3/GpL16-k0.
With B12 the relative binding activity was 20 % of GpH7-B3/GpL16-k0.
In the case of B13, the relative binding activity is reported as 55 % of GpH7-B3/GpL16-k0.
In the case of B14, the relative binding activity is reported as 38 % of GpH7-B3/GpL16-k0.
B15 was tested, and the relative binding activity was 72 % of GpH7-B3/GpL16-k0.

Each binder was assayed against T5, human FcγRIIIa(F) (human, UniProt P08637 17-208, limits assumed) (assay: SPR (Biacore);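 note: antibody variants captured on sensor chip, Fcγ receptor flowed over at 25 °C, bound receptor normalized to amount of captured antibody, expressed relative to reference antibody set as 100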).
T5 construct: also called FcgRIIIaF; allotype F158
T5 sequence (P08637 other isoform, or with tags, fused parts or gaps limits assumed): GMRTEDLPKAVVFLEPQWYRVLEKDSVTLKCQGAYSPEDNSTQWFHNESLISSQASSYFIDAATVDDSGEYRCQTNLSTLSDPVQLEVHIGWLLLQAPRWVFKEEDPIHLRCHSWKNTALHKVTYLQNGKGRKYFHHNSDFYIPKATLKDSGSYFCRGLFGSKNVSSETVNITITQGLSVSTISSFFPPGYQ
For B1, the relative binding activity was 49 % of GpH7-B3/GpL16-k0.
B2 was tested, and the relative binding activity was 1 % of GpH7-B3/GpL16-k0.
B3 was tested, and the relative binding activity was 63 % of GpH7-B3/GpL16-k0.
With B4 the relative binding activity was 4 % of GpH7-B3/GpL16-k0.
B5 was tested, and the relative binding activity was 49 % of GpH7-B3/GpL16-k0.
With B6 the relative binding activity was 6 % of GpH7-B3/GpL16-k0.
B7 was tested, and the relative binding activity was 50 % of GpH7-B3/GpL16-k0.
In the case of B8, the relative binding activity is reported as 36 % of GpH7-B3/GpL16-k0.
With B9 the relative binding activity was 35 % of GpH7-B3/GpL16-k0.
B10 was tested, and the relative binding activity was 25 % of GpH7-B3/GpL16-k0.
B11 was tested, and the relative binding activity was 60 % of GpH7-B3/GpL16-k0.
With B12 the relative binding activity was 22 % of GpH7-B3/GpL16-k0.
B13 was tested, and the relative binding activity was 2 % of GpH7-B3/GpL16-k0.
In the case of B14, the relative binding activity is reported as 47 % of GpH7-B3/GpL16-k0.
In the case of B15, the relative binding activity is reported as 56 % of GpH7-B3/GpL16-k0.

Each binder was assayed against T3, human FcγRIIb (assay: SPR (Biacore)).
In the case of B1, the relative binding activity is reported as 68 % of GpH7-B3/GpL16-k0.
For B2, the relative binding activity was 26 % of GpH7-B3/GpL16-k0.
With B3 the relative binding activity was 62 % of GpH7-B3/GpL16-k0.
With B4 the relative binding activity was 0 % of GpH7-B3/GpL16-k0.
For B5, the relative binding activity was 37 % of GpH7-B3/GpL16-k0.
In the case of B6, the relative binding activity is reported as -3 % of GpH7-B3/GpL16-k0.
With B7 the relative binding activity was 53 % of GpH7-B3/GpL16-k0.
B8 was tested, and the relative binding activity was 90 % of GpH7-B3/GpL16-k0.
B9 was tested, and the relative binding activity was 27 % of GpH7-B3/GpL16-k0.
B10 was tested, and the relative binding activity was 19 % of GpH7-B3/GpL16-k0.
B11 was tested, and the relative binding activity was 88 % of GpH7-B3/GpL16-k0.
In the case of B12, the relative binding activity is reported as 19 % of GpH7-B3/GpL16-k0.
With B13 the relative binding activity was 12 % of GpH7-B3/GpL16-k0.
B14 was tested, and the relative binding activity was 32 % of GpH7-B3/GpL16-k0.
B15 was tested, and the relative binding activity was 64 % of GpH7-B3/GpL16-k0.

Source: US20200199241A1 (Chugai, published 2020)
